Measured values as given in patent US20210253725A1 (BIONTECH, published 2021).

T1: CD27 expressed on the cell surface (HT1080_CD27 cells) (human, UniProt P26842 20-260)
T1 construct: whole, on cells; also called K562_CD27
T1 sequence (looked up): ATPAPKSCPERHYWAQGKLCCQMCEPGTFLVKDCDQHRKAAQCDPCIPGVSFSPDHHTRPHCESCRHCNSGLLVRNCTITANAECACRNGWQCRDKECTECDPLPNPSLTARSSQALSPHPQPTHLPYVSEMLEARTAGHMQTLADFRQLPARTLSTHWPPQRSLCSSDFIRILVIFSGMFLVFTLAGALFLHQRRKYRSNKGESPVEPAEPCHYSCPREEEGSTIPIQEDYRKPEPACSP

T2: CD27 protein (His-tagged, Sino Biological Inc. 10039-H08B1) (human, UniProt P26842 20-192)
T2 construct: bought; coated onto ELISA plates; also called human CD27; recombinant protein; not shown: His tag
T2 sequence (looked up): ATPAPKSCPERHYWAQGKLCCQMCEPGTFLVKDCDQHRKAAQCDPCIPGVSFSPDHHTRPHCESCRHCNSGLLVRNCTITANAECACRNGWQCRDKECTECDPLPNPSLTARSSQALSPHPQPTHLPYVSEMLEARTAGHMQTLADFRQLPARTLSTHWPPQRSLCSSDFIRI


What was measured:
[1] = target: T1, CD27 expressed on the cell surface …; test: cellular binding assay, HT1080_CD27 cells
[2] = target: T2, CD27 protein (His-tagged, Sino …); test: ELISA on coated His-tagged CD27
[3] = target: T1, CD27 expressed on the cell surface …; test: cell-based or functional assay
Note: test concentration or dose not given here.

Binder	Cellular binding assay [RFU] [1] [RFU]	ELISA [abs. corr.] [2] [abs. corr.]	IL-8, cross-linked by F(ab')2 fragment [abs. corr.] [3] [abs. corr.]	IL-8 [abs. corr.] [3] [abs. corr.]
P018.S.05.A.A04 (antibody, V domains shown, V regions on human Ig constant parts; also called AB27_81) VH: QEQLVESGGDLVKPGASLTLTCTASGIDFSSSYYMSWVRQAPGKGLEWIACIDTVDDYTYYASWAKGRFTISKTSSTTVSLQMTSLTAADTATYFCARERIDNNTDCFDLWGPGTLVTISS VL: AQVLTQTPSPVSAAVGGTVTISCQSSQSVVSKNRLAWYQQKPGQPPKLLIWLASKLASGVPSRFRGSGSGTQFTLTISGVQSDDAATYYCQGYYSGAIYAFGGGTDVVVK	369	3.3	1.37	0.226
P018.S.08.A.G02 (antibody, V domains shown, V regions on human Ig constant parts; also called AB27_141) VH: QSVEESGGRLVTPGTPLTLTCTVSGFSLSTYAMSWVRQAPGKGLEWIGMNTRSGIIYYASWAKGRFTISKTSTTVHLKITSPTTEDTATYFCARDLYADVSGYYLGLWGPGTLVTVSS VL: AQVLTQTPSSVSAAVGGTVTINCQASQSLYNNKNLAWYQQKPGQPPKLLIYYASTLASGVSSRFKGSGSGTQFTLTISDLESDDAATYYCQGEFICSSADCVVFGGGTAVVVK	315	3.32	2.48	0.598
P018.S.10.A.E01 (antibody, V domains shown, V regions on human Ig constant parts; also called AB27_175) VH: QEQLVESGGGLVQPEGSLTLTCTATGIDFSTNYRSCWVRQAPGKGLEWIACIDTDDSDSTYYASWAKGRFTISKTSSTTVTLQMTSLTAADTATYFCTRAYTTSDYAWSFYLWGPGTLVTVSS VL: DLVMTQTPASVEAAVGGTVTIKCQTSQSISKFLNWYQQTPGQPPKLLIYRASTLESGVPSRFEGSGSGTEFTLTISDLESADAATYYCQCTYGGTSGSVWAFGGGTEVVVK	227	3.3	2.54	0.257
P018.S.01.A.B03 (antibody, V domains shown, V regions on human Ig constant parts; also called AB27_4) VH: QSLEESGGRLVTPGTPLTLTCTVSGFSLSSNAMSWVRQAPGEGLEWIGTIYTHGSSYYATWAKGRFTISKTSSTTVDLKMTSLTTEDTATYFCAGWAGGLSLWGPGTLVTVSS VL: DVVMTQTPASVSEPVGGTVTIKCQASEDIDNALAWYQQKPGQAPKILIYSASTLPSGVPSRFKGSGSGTQFTLTISDLESADAATYYCQSAYGGTYGDGFGGGTEVVVK	387	3.3	1.7	0.06
P018.S.01.A.H02 (antibody, V domains shown, V regions on human Ig constant parts; also called AB27_25) VH: QSVEESGGRLVTPGTPLTLTCTASGFSLSSYHMQWVRQAPGKGLEWIGIIYAGSGNTWYASWAKGRFTISKTSTTVDLKITSPTTEDTAAYFCARQPGGDASDTQLDLWGQGTLVTVSS VL: AAVLTQTASPVSAAVGGTVTINCQSSQSVFDHNQLSWFQHKPGQSPKLLIYRASTLASGVPSRFKGSGSGTQFTLTISDVQSDDAATYYCLGGYSSSSDTVFGGGTEVVVK	317	3.3	2.54	0.3
P018.S.05.A.A02 (antibody, V domains shown, V regions on human Ig constant parts; also called AB27_80) VH: QSLEESGGRLVTPGTPLTLICTASGIDLSSYGMTWVRQAPGKGLEWIGIISTIGDTYYASWVKGRFTISKTSTTVDLKITSPTTEDTATYFCARYTNSGYAMMYYFNLWGQGTLVTVSS VL: DIVMTQTPASVEAAVGGTVTIKCQASQNIVNALAWYQQKLGQPPKLLIYVASYLASGVPSRFKGSGSGTEFTLTISDLESVDAATYYCQSYYYSSGTSYGQNAFGGGTEVVVK	334	3.3	1.53	0.212
P018.S.09.A.E06 (antibody, V domains shown, V regions on human Ig constant parts; also called AB27_156) VH: QSVEESGGRLVTPGTPLTLTCTVSGFSLSSYGMIWVRQAPGKGLEWIAWSSSNDNTYYASWAKGRFTISKTSSTTVDLKMTSLTTEDTATYFCARNGVYSTGNYFDLWGQGTLVTVSS VL: AQVLTQTPSPVSAAVGGTVTINCQASQSVYNNNNLAWYQQKPGQPPKFLIYAASRLPSGVPPRFSGSGSGTQFTLTISDVQSDDAATYYCQGEFDCDSADCFAFGGGTEVVVK	307	3.54	1.73	1.23
P018.S.05.A.B02 (antibody, V domains shown, V regions on human Ig constant parts; also called AB27_83) VH: QSLEESGGRLVTPGTPLTLTCKVSGFSLSSYDMIWVRQAPGKGLEWIGIVSTGGSAGYASWAKGRFTITKTSTTVDLKITSPTTEDTATYFCARIISGGRDLWGPGTLVTVSS VL: DIVMTQTPASVEAAVGGTVTIKCQASESISSRLAWYQQKPGQPPKLLIYSASTLAFGVSSRFKGSGSGTQFTLTISDLESADAATYYCQSYYYSSTASYASNNAFGGGTEVVVK	259	3.32	1.95	0.633
P018.S.10.A.C06 (antibody, V domains shown, V regions on human Ig constant parts; also called AB27_174) VH: QSLEESGGRLVTPGTPLTLTCTVSGIDLNNNAMTWVRQAPGEGLEWIGIISTADTTTYASWTKGRFTISKTSTTVDLKITSPTTEDTATYFCARAAYFSYGYFNLWGQGTLVTVSS VL: DIVMTQTPASVEAAVGGTVTIKCQASQNIGNALAWYQQKPGQPPKLLIYGASTLASGVPSRFKGSGSGTEFTLTISDLESADATTYFCQSYVYSDGNVFGGGTEVVVK	395	3.39	1.18	0.28
P018.S.06.A.E02 (antibody, V domains shown, V regions on human Ig constant parts; also called AB27_105) VH: QSLEESGGRLVTPGTPLTLTCTVSGIDLNNNAMTWVRQAPGEGLEWIGIISTADTTSYASWTKGRFTISKTSTTVDLKITSPTTEDTATYFCARAAYFSYGYFNLWGQGTLVTVSS VL: DIVMTQTPASVEAAVGGTVTIKCQASQNIGNALAWYQQKSGQPPKLLIYGASTLASGVPSRFKGSGSGTEFTLTISDLESADATTYFCQSYVYSDGNVFGGGTEVVVK	357	3.3	1.22	0.582
P018.S.10.A.F01 (antibody, V domains shown, V regions on human Ig constant parts; also called AB27_179) VH: QSLEESGGGLVQPEGSLTLTCTASGFSFSSSDYMCWVRQAPGKGLEWIACMYTGSVEHTYYANWAEGRFTISKTSSTTVTLQMTSLTAADTATYFCARSPTGYPDYGYGGFSLWGPGTLVTVSS VL: ALVMTQTPSSVSAAVGGTVTINCQASQNIYSNLAWYQQKSGQRPKLLIHGASNLESGVPSRFKGSGSGTEFTLTISDLESADAATYYCQSAYYSGGPDMAFGGGTEVVVK	329	3.31	1.05	-0.011
P018.S.03.A.F04 (antibody, V domains shown, V regions on human Ig constant parts; also called AB27_55) VH: QSVEESGGRLVTPGTPLTLTCTVSGFSLSSYAMGWVRQAPGKGLQWIGILYRNDAASYANWAKGRFTISKTSTTVDLTMPSLTTEDTATYFCVRGYVNDGYYNLWGQGTLVTVSS VL: AYDMTQTPASVEVAVGGTVTIKCQASESIGYRLAWYQQKPGQPPKLLIFDASDLASGVPSRFKGSGSGKHFTLTISGVQSADAATYYCQQDYSYSITDNCFGGGTEVVVS	299	3.31	1.59	0.253
P018.S.01.A.E03 (antibody, V domains shown, V regions on human Ig constant parts; also called AB27_15) VH: QSVEESGGRLVTPGTPLTLTCTVSGFSLSSYAMGWVRQAPGKGLQWIGILYRNDAASYANWAKGRFTISKTSTTVDLTMPSLTTEDTATYFCVRGYVNDGYYNLWGQGTLVTVSS VL: AYDMTQTPASVEVAVGGTVTIKCQASESIGYRLAWYQQKSGQPPKLLIFDASDLASGVPSRFKGSGSGKHFTLTISGVQSADAATYYCQQDYSYSIIDNSFGGGTEVVVK	335	3.3	1.22	0.436
P018.S.10.A.F05 (antibody, V domains shown, V regions on human Ig constant parts; also called AB27_181) VH: QSVEESGGRLVTPGTPLTLTCTVSGFSLSGYHMCWVRQAPGKGLQYIGIIGSNGVTYYASWAKSRSTITRNTNENTVTLKMTSLTTEDTATYFCARSSGWGARFNLWGQGTLVTVSS VL: AQVLTQTPASVSAAVGGTVTINCQASQSVYNDNELSWYQQKPGQPPKLLIYKASTLTSGVPLRFSGSGSGTQFTLTISDVQSDDAATYYCLGGGSTPSDSTFGGGTEVVVK	335	3.49	1.34	0.267
P018.S.10.A.A06 (antibody, V domains shown, V regions on human Ig constant parts; also called AB27_165) VH: QSVEESGGRLVTPGTPLTLTCTVSGFSLSGYHMCWVRQAPGKGLQYIGIIGSNGNTYYASWAKSRSTITRNTNENTVTLKMTSLTTEDTATYFCARSSGWGARFNLWGQGTLVTVSS VL: AQVLTQTPSSVSAAVGGTVTINCQASQSIYNDNELSWYQQKPGQPPKLLIYKASTLASGVPLRFSGSGSGTQFTLTISDVQSDVAATYYCLGGGMTPSDTTFGGGTEVVVK	414	3.18	1.12	-0.13
P018.S.10.A.G03 (antibody, V domains shown, V regions on human Ig constant parts; also called AB27_182) VH: QSVEESGGRLVTPGTPLTLTCTVSGFTISSYHMCWVRQAPGKGLQYIGIIGSNGNTYYASWAKSRSTITRNTNENTVTLKMTSLTTEDTATYFCARSSGWGARFNLWGQGTLVTVSS VL: AQVLTQTPSSVSAAVGGTVTINCQASQSVYNDNELSWYQQKPGQPPKLLIYKASTLTSGVPLRFSGSGSGTQFTLTISDVQSDDAATYYCLGGGSTPSDSTFGGGTEVVVK	386	3.31	1.3	-0.18
